{"source": "paper doi:10.1101/2022.11.10.515925", "about": "(bioRxiv, 2022)"}
{"molecular_target": "the molecule itself", "experiment": "SEC-MALS"}
{"protein": "KIF20A 55-665 (dimeric motor construct) (domain or fragment, mouse, UniProt P97329 55-665, looked up) ALLEDTSEKVKVYLRIRPFLTSELDRQEDQGCVCIENTETLVLQAPKDSFALKSNERGVGQATHKFTFSQIFGPEVGQVAFFNLTMKEMVKDVLKGQNWLIYTYGVTNSGKTYTIQGTSKDAGILPQSLALIFNSLQGQLHPTPDLKPLLSNEVIWLDSKQIRQEEMKKLSLLIGGLQEEELSTSVKKRVHTESRIGASNSFDSGVAGLSSTSQFTSSSQLDETSQLWAQPDTVPVSVPADIRFSVWISFFEIYNELLYDLLEPPSHQHKRQTLRLCEDQNGNPYVKDLNWIHVRDVEEAWKLLKVGRKNQSFASTHMNQQSSRSHSIFSIRILHLQGEGDIVPKISELSLCDLAGSERCKHQKSGERLKEAGNINTSLHTLGRCIAALRQNQQNRSKQNLIPFRDSKLTRVFQGFFTGRGRSCMIVNVNPCASTYDETLHAAKFSALASQLVHAPPVHLGIPSLHSFIKKHSPQVGPGLEKEDKADSDLEDSPEDEADVSVYGKEELLQVVEAMKALLLKERQEKLQLEIQLREEICNEMVEQMQQREQWCSERLDNQKELMEELYEEKLKILKESLTTFYQEQIQERDEKIEELETLLQEAKQQPAAQQ", "stoichiometry N": 2}
{"protein": "KIF20A 25-665 (dimeric motor construct) (domain or fragment, mouse, UniProt P97329 25-665, looked up) ESTAADLRSVVRKDLLSDCSVISASLEDKQALLEDTSEKVKVYLRIRPFLTSELDRQEDQGCVCIENTETLVLQAPKDSFALKSNERGVGQATHKFTFSQIFGPEVGQVAFFNLTMKEMVKDVLKGQNWLIYTYGVTNSGKTYTIQGTSKDAGILPQSLALIFNSLQGQLHPTPDLKPLLSNEVIWLDSKQIRQEEMKKLSLLIGGLQEEELSTSVKKRVHTESRIGASNSFDSGVAGLSSTSQFTSSSQLDETSQLWAQPDTVPVSVPADIRFSVWISFFEIYNELLYDLLEPPSHQHKRQTLRLCEDQNGNPYVKDLNWIHVRDVEEAWKLLKVGRKNQSFASTHMNQQSSRSHSIFSIRILHLQGEGDIVPKISELSLCDLAGSERCKHQKSGERLKEAGNINTSLHTLGRCIAALRQNQQNRSKQNLIPFRDSKLTRVFQGFFTGRGRSCMIVNVNPCASTYDETLHAAKFSALASQLVHAPPVHLGIPSLHSFIKKHSPQVGPGLEKEDKADSDLEDSPEDEADVSVYGKEELLQVVEAMKALLLKERQEKLQLEIQLREEICNEMVEQMQQREQWCSERLDNQKELMEELYEEKLKILKESLTTFYQEQIQERDEKIEELETLLQEAKQQPAAQQ", "stoichiometry N": 2}
{"protein": "KIF20A 55-665 Δ(535-549) (dimeric motor, shortened neck linker) (domain or fragment, mouse, UniProt P97329 55-665, looked up) ALLEDTSEKVKVYLRIRPFLTSELDRQEDQGCVCIENTETLVLQAPKDSFALKSNERGVGQATHKFTFSQIFGPEVGQVAFFNLTMKEMVKDVLKGQNWLIYTYGVTNSGKTYTIQGTSKDAGILPQSLALIFNSLQGQLHPTPDLKPLLSNEVIWLDSKQIRQEEMKKLSLLIGGLQEEELSTSVKKRVHTESRIGASNSFDSGVAGLSSTSQFTSSSQLDETSQLWAQPDTVPVSVPADIRFSVWISFFEIYNELLYDLLEPPSHQHKRQTLRLCEDQNGNPYVKDLNWIHVRDVEEAWKLLKVGRKNQSFASTHMNQQSSRSHSIFSIRILHLQGEGDIVPKISELSLCDLAGSERCKHQKSGERLKEAGNINTSLHTLGRCIAALRQNQQNRSKQNLIPFRDSKLTRVFQGFFTGRGRSCMIVNVNPCASTYDETLHAAKFSALASQLVHAPPVHLGIPSLHSFIKKHSPQVGPGLDEADVSVYGKEELLQVVEAMKALLLKERQEKLQLEIQLREEICNEMVEQMQQREQWCSERLDNQKELMEELYEEKLKILKESLTTFYQEQIQERDEKIEELETLLQEAKQQPAAQQ", "stoichiometry N": 2}
{"protein": "KIF20A 55-665 Δ(518-549) (dimeric motor, shortened neck linker) (domain or fragment, mouse, UniProt P97329 55-665, looked up) ALLEDTSEKVKVYLRIRPFLTSELDRQEDQGCVCIENTETLVLQAPKDSFALKSNERGVGQATHKFTFSQIFGPEVGQVAFFNLTMKEMVKDVLKGQNWLIYTYGVTNSGKTYTIQGTSKDAGILPQSLALIFNSLQGQLHPTPDLKPLLSNEVIWLDSKQIRQEEMKKLSLLIGGLQEEELSTSVKKRVHTESRIGASNSFDSGVAGLSSTSQFTSSSQLDETSQLWAQPDTVPVSVPADIRFSVWISFFEIYNELLYDLLEPPSHQHKRQTLRLCEDQNGNPYVKDLNWIHVRDVEEAWKLLKVGRKNQSFASTHMNQQSSRSHSIFSIRILHLQGEGDIVPKISELSLCDLAGSERCKHQKSGERLKEAGNINTSLHTLGRCIAALRQNQQNRSKQNLIPFRDSKLTRVFQGFFTGRGRSCMIVNVNPCASTYDETLHAAKFSALASQLVHAPPVHLGIPDEADVSVYGKEELLQVVEAMKALLLKERQEKLQLEIQLREEICNEMVEQMQQREQWCSERLDNQKELMEELYEEKLKILKESLTTFYQEQIQERDEKIEELETLLQEAKQQPAAQQ", "stoichiometry N": 2}
{"protein": "KIF20A 1-665 (dimeric motor construct) (domain or fragment, mouse, UniProt P97329 1-665, looked up) MSHRILSPPAGLLSDEDVVDSPILESTAADLRSVVRKDLLSDCSVISASLEDKQALLEDTSEKVKVYLRIRPFLTSELDRQEDQGCVCIENTETLVLQAPKDSFALKSNERGVGQATHKFTFSQIFGPEVGQVAFFNLTMKEMVKDVLKGQNWLIYTYGVTNSGKTYTIQGTSKDAGILPQSLALIFNSLQGQLHPTPDLKPLLSNEVIWLDSKQIRQEEMKKLSLLIGGLQEEELSTSVKKRVHTESRIGASNSFDSGVAGLSSTSQFTSSSQLDETSQLWAQPDTVPVSVPADIRFSVWISFFEIYNELLYDLLEPPSHQHKRQTLRLCEDQNGNPYVKDLNWIHVRDVEEAWKLLKVGRKNQSFASTHMNQQSSRSHSIFSIRILHLQGEGDIVPKISELSLCDLAGSERCKHQKSGERLKEAGNINTSLHTLGRCIAALRQNQQNRSKQNLIPFRDSKLTRVFQGFFTGRGRSCMIVNVNPCASTYDETLHAAKFSALASQLVHAPPVHLGIPSLHSFIKKHSPQVGPGLEKEDKADSDLEDSPEDEADVSVYGKEELLQVVEAMKALLLKERQEKLQLEIQLREEICNEMVEQMQQREQWCSERLDNQKELMEELYEEKLKILKESLTTFYQEQIQERDEKIEELETLLQEAKQQPAAQQ", "stoichiometry N": 2}
